The values that follow come from publication PMC8122577, “Estrogen-Related Receptor Influences the Hemolymph Glucose Content by Regulating Midgut Trehalase Gene Expression in the Last Instar Larvae of Bombyx mori”.

Data set [1] has as its target T1, BmERR DBD (Bombyx mori, UniProt A0A1B1M0R7 103-178).
T1 sequence: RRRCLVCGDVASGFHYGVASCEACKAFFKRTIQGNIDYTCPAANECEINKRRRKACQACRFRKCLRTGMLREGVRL
Briefly: EMSA; inhibited by competitive probe; EMSA (Beyotime chemiluminescent kit), 25 °C 20 min; 5% native PAGE in 45 mM Tris-borate, 1 mM EDTA pH 8.3; binding buffer not given. To be noted: protein: recombinant; label: 3'-end biotin; blunt. For orientation: Mobility shift assays separate free from complexed probe on a gel.

For data set [2], the target named is T1, BmERR DBD. The data set can be described thus: EMSA; dose-dependent; reduced by anti-BmERR antibody or competitive probe; EMSA (Beyotime chemiluminescent kit), 25 °C 20 min; 5% native PAGE in 45 mM Tris-borate, 1 mM EDTA pH 8.3; binding buffer not given. The conditions noted are these: protein: recombinant; label: 3'-end biotin; blunt.

B1: ERRE-like CRE 1 (dsDNA)
DNA 1: GGGTTCTGACCTCGGAGGG
DNA 2: CCCTCCGAGGTCAGAACCC
In the case of B1, the binding result in data set [1] is reported as “binds”.

B2: ERRE-like CRE 6 (dsDNA)
DNA 1: GCCTACAAGGGCAATAAAA
DNA 2: TTTTATTGCCCTTGTAGGC
On to B2, for which, in data set [1], the binding result was “binds”.

B3: ERRE-like CRE 4 (dsDNA)
DNA 1: CGATACAAGGTCAACGAGA
DNA 2: TCTCGTTGACCTTGTATCG
In the case of B3, the binding result in data set [2] is “binds”.

B4: ERRE-like CRE 2 (dsDNA)
DNA 1: CATTGGTGACCTACATGGC
DNA 2: GCCATGTAGGTCACCAATG
For B4, the binding result in data set [1] is reported as “binds”.
